Measurements reported in patent US20170101476A1 (Novartis, published 2017).
Where two headings read alike, the source gives them in different places. Values belong to the binder of their own block, whether it stands above or below them.

Experiments:
Experiment in all cases: cell-based or functional assay
Human CXCR2 [1] = molecular target: T1, Human CXCR2 (human, UniProt P25025 1-360)
T1 sequence: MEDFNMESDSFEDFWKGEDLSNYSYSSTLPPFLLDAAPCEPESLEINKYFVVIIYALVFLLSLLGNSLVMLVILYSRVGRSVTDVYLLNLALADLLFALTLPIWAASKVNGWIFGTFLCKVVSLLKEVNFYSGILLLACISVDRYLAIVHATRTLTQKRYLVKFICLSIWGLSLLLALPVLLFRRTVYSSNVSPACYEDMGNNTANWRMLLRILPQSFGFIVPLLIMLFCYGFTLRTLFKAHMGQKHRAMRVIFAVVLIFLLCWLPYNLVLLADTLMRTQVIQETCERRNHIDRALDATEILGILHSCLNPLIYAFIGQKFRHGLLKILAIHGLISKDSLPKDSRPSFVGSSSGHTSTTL

Human CXCR2 [2] = molecular target: T1, Human CXCR2; remark: listed apart in the source
Human CXCR2 [3] = molecular target: T1, Human CXCR2; remark: listed apart in the source
Cynomolgus CXCR2 [4] = molecular target: T2, Cynomolgus CXCR2 (cynomolgus, UniProt Q28519 3-353 (rhesus entry))
T2 chain: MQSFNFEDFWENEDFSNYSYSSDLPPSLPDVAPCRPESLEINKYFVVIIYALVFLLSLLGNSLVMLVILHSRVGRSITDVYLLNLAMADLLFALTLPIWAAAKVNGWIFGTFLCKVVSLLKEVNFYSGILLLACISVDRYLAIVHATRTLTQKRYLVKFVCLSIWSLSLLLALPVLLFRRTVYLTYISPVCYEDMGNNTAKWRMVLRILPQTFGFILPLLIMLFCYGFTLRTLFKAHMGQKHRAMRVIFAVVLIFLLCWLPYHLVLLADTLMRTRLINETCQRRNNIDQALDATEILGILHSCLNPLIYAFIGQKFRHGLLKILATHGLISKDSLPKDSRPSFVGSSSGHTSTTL

Human CXCR2 [5] = molecular target: T1, Human CXCR2; remark: listed apart in the source
Cynomolgus CXCR2 [6] = molecular target: T2, Cynomolgus CXCR2

[35S]GTPγS % inhibition of max, ENA-78 (Human CXCR2 [2]): 100% | [35S]GTPγS % inhibition of max, GRO-α (Human CXCR2 [2]): 100% | [35S]GTPγS % inhibition of max, IL-8 (Human CXCR2 [2]): 100% | [35S]GTPγS accumulation IC50, ENA-78 (Human CXCR2 [2]): 1.17 nM | [35S]GTPγS accumulation IC50, GRO-α (Human CXCR2 [2]): 0.844 nM | [35S]GTPγS accumulation IC50, IL-8 (Human CXCR2 [2]): 717 pM | FLIPR IC50, GRO-α induced intracellular calcium release (Human CXCR2 [3]): 10.2 nM | FLIPR IC50, GRO-α induced intracellular calcium release (Cynomolgus CXCR2 [4]): 8.72 nM | Human WBSC IC50 (vs rhGROα) (Human CXCR2 [5]): 0.24 nM | Cynomologus WBSC IC50 (vs rhGROα) (Cynomolgus CXCR2 [6]): 0.43 nM
B2: CXCR20035 (other, not shown: small tags and cut ends)
chain: EVQLVESGGGLVQAGGSLTLSCAVSGSTFRINTMGWYRRAPGKQRELVAARDRGGYINYVDSVKGRFTVSRDNAKPTMYLQMNSLKPEDTAVYYCHAGTQDRTGRNFDRWGQGTQVTVSSGGGGSGGGGSGGGGSGGGGSGGGGSGGGGSGGGGSEVQLVESGGGLVQPGGSLRLSCVASGRIFSSNAMGWFRQAPGKEREFVAAITWRSGGSAYYADSAKGRFTISRDNAKNTVYLQMNSLKPEDTAVYYCAAGGSSWLSFPPDYWGQGTQVTVSS

[35S]GTPγS % inhibition of max, GRO-α (Human CXCR2 [2]): 100% | [35S]GTPγS accumulation IC50, GRO-α (Human CXCR2 [2]): 0.995 nM | FLIPR IC50, GRO-α induced intracellular calcium release (Human CXCR2 [3]): 11.8 nM | FLIPR IC50, GRO-α induced intracellular calcium release (Cynomolgus CXCR2 [4]): 9.47 nM | Human Chemotaxis IC50 (vs rhGROα) (Human CXCR2 [5]): 0.145 nM | Human WBSC IC50 (vs rhGROα) (Human CXCR2 [5]): 0.29 nM | Cynomologus WBSC IC50 (vs rhGROα) (Cynomolgus CXCR2 [6]): 0.44 nM
B3: CXCR20034 (bispecific antibody, not shown: small tags and cut ends)
chain: EVQLVESGGGLVQAGGSLRLSCAASGRTFSDYAMGWFRQAPGKEREFVAAITWNGGRVFYTASVKGRFTISRDNAKNTMYLQMNSLKPEDTAVYYCAADKDRRTDYLGHPVAYWGQGTQVTVSSGGGGSGGGGSGGGGSGGGGSGGGGSGGGGSGGGGSEVQLVESGGELVQPGGSLRLSCAASGSILTINAMGWYRQAPGKQRELVVRRTRGGSTTYQDSVKGRFTISADIAKKTMYLQMNSLKPEDTAVYYCMLDDRGGVYWGQGTQVTVSS

Further lines, the binder ahead of its results:

B1: 137B07 (VHH, not shown: small tags and cut ends)
VHH: EVQLVESGGGLVQPGGSVRLSCVASGIIFRLSALGWTRQGPGKAREWVAGINSDGTTNYADPVKGRFTISRDNAKNTIYLHMDMLKPEDTAVYYCASGKYRGQGTQVTVSS
FLIPR IC50, GRO-α induced intracellular calcium release (Human CXCR2 [1]): 6.71 nM

B4: CXCR20023 (bispecific antibody, not shown: small tags and cut ends)
chain: EVQLVESGGGLVQAGGSLRLSCAASGRTFSDYAMGWFRQAPGKEREFVAAITWNGGRVFYTASVKGRFTISRDNAKNTMYLQMNSLKPEDTAVYYCAADKDRRTDYLGHPVAYWGQGTQVTVSSGGGGSGGGGSGGGGSGGGGSGGGGSGGGGSGGGGSEVQLVESGGGLVQPGGSLRLSCVASGRIFSSNAMGWFRQAPGKEREFVAAITWRSGGSAYYADSAKGRFTISRDNAKNTVYLQMNSLKPEDTAVYYCAAGGSSWLSFPPDYWGQGTQVTVSS
[35S]GTPγS % inhibition of max, GRO-α (Human CXCR2 [2]): 100% | [35S]GTPγS accumulation IC50, GRO-α (Human CXCR2 [2]): 26.6 nM | FLIPR IC50, GRO-α induced intracellular calcium release (Human CXCR2 [3]): 14.8 nM | FLIPR IC50, GRO-α induced intracellular calcium release (Cynomolgus CXCR2 [4]): 12 nM

B5: CXCR20030 (other, not shown: small tags and cut ends)
chain: EVQLVESGGGLVQAGGSLRLSCAASGRTFSDYAMGWFRQAPGKEREFVAAITWNGGRVFYTASVKGRFTISRDNAKNTMYLQMNSLKPEDTAVYYCAADKDRRTDYLGHPVAYWGQGTQVTVSSGGGGSGGGGSGGGGSGGGGSGGGGSGGGGSGGGGSEVQLVESGGGLVQAGGSLTLSCAVSGSTFRINTMGWYRRAPGKQRELVAARDRGGYINYVDSVKGRFTVSRDNAKPTMYLQMNSLKPEDTAVYYCHAGTQDRTGRNFDRWGQGTQVTVSS
[35S]GTPγS % inhibition of max, ENA-78 (Human CXCR2 [2]): 100% | [35S]GTPγS % inhibition of max, GRO-α (Human CXCR2 [2]): 100% | [35S]GTPγS % inhibition of max, IL-8 (Human CXCR2 [2]): 100% | [35S]GTPγS accumulation IC50, ENA-78 (Human CXCR2 [2]): 1.3 nM | [35S]GTPγS accumulation IC50, GRO-α (Human CXCR2 [2]): 1.02 nM | [35S]GTPγS accumulation IC50, IL-8 (Human CXCR2 [2]): 1090 pM | FLIPR IC50, GRO-α induced intracellular calcium release (Human CXCR2 [3]): 11.8 nM | FLIPR IC50, GRO-α induced intracellular calcium release (Cynomolgus CXCR2 [4]): 6.36 nM | Human WBSC IC50 (vs rhGROα) (Human CXCR2 [5]): 0.215 nM | Cynomologus WBSC IC50 (vs rhGROα) (Cynomolgus CXCR2 [6]): 0.56 nM
